Here are results for one substance from doi:10.1101/2024.07.16.603715.

For orientation: stoichiometry N means a count of units in the complex or per binding partner.

The target in this experiment is PTPRD/S (signal of the anti-PTPR blot in BN-PAGE). The experiment in a line: native gel or EMSA.

tetraspanin T178B (natural protein) gave a stoichiometry N of 1.
